{
  "source": "patent US8618048B2",
  "about": "“Insulin analogues of prolonged activity” (Instytut Biotechnologii I Antybiotyków, priority 2008, dated 2013)",
  "origin": "cited, not measured here",
  "conditions": "background statement",
  "data": [
    {"substance": "unmodified natural insulin: unmodified natural insulin", "values": [
      {"measurement": "isoelectric point", "value": 5.4}
    ]}
  ]
}
